Test results published in publication PMC5053618 (2016).

Biological target: T1, soluble EPCR ECD (truncated after Ser210) (Homo sapiens, UniProt Q9UNN8)
T1 chain: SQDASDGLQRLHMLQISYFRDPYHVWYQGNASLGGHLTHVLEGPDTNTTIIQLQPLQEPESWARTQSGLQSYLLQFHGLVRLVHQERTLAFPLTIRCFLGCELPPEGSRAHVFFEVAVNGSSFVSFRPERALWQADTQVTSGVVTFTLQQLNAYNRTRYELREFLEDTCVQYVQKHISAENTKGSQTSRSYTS
Experiment: solid-phase plate binding assay

Kd: 24 nM
B1: activated protein C (protein)
chain 1: ANSFLEELRHSSLERECIEEICDFEEAKEIFQNVDDTLAFWSKHVDGDQCLVLPLEHPCASLCCGHGTCIDGIGSFSCDCRSGWEGRFCQREVSFLNCSLDNGGCTHYCLEEVGWRRCSCAPGYKLGDDLLQCHPAVKFPCGRPWKRMEKKRSHL
chain 2: LIDGKMTRRGDSPWQVVLLDSKKKLACGAVLIHPSWVLTAAHCMDESKKLLVRLGEYDLRRWEKWELDLDIKEVFVHPNYSKSTTDNDIALLHLAQPATLSQTIVPICLPDSGLAERELNQAGQETLVTGWGYHSSREKEAKRNRTFVLNFIKIPVVPHNECSEVMSNMVSENMLCAGILGDRQDACEGDSGGPMVASFHGTWFLVGLVSWGEGCGLLHNYGVYTKVSRYLDWIHGHIRDKEAPQKSWAP
modifications: APC biotinylated with biotin-FPR-chloromethylketone, Ca2+ and Mg2+
